Source: the nanobody polyreactivity screen of Harvey et al. (2022)

Assay: yeast display, Sf9 membrane polyspecificity reagent, FACS + sequencing; frameworks hold sequencing errors
Method in brief: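 A synthetic nanobody library was expressed on Saccharomyces cerevisiae BJ5465 by galactose induction for 36–48 hours. The library was stained for 1 hour at 4 °C with 10% biotinylated, detergent-solubilized Sf9 membrane reagent and enriched with streptavidin microbeads before FACS. Low and high (top ~1%) gates were set on anti-HA fluorescence for expression and streptavidin fluorescence for reagent binding, and each polyreactivity label reflects the gate of origin.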

Row | Sequence | polyreactivity (PSR sort gate)
1 | QVQLIESGGGLVQAGGSLRLSCAASGSTFYGNAMGWYRQAPGKEREFVDAITGSGDSTDYADSVKGRFTISRDNAKNTVYLQMNSLKPEDTAVYFCNAEVFDRDSYEYWGQGTQVSVSS | low polyreactivity
2 | QVQLIESGGGLVQAGGSLRLSCAASGSTLGLYDMGWYRQAPGKERELVAAISTGSGSTYYADSVKGRFTISRDNAKYTVYLLMISLKPEDTAVYYCNTDAWYSPIWFWVDSWGQGTQVTVSS | low polyreactivity
3 | QVQLIESGGVLVQAGGSLRLSCAASGSTFTINVMGWYRQAPGKERELVAAINGGGRTNYADSVKGRFTISRDNAKNTVYLQINSLKPEDTAVYYCAADGLSNVRQMDYWGQGTQVTVSS | low polyreactivity
4 | QVQLKESGAGLVQAGGSLRLCCAASGNIIPDAGMGWYRQAPGKEREFVAGISRGANTYYADSVKGRFTISRDNAKNSVYLQMNSLKPEDTAVYYCNAGSSYLCRFPLDYWGQGTQVTVSS | high polyreactivity
5 | QVQLLDSGGGLVQAGGSLRLSCAASGFIFRPYPMACYRQSPGKERELVAPITGGGSTYYADSVKGRFTISRENAKNTVYLQMNSLKPEDTAVYYCNADRRRRSGGFAGWHFQRNDFWGQGTQVTVSS | low polyreactivity
6 | QVQLLESAGGLVQAGGSLRLICAASGSTFYNYAMGWYRQAPGKERELVDSITSSGVSTYYADSVKGRFTISRDIAKNTVYLQMNSLKPDDTAVYYCNADDGYGQVHSISTYEMDYWGQGTQVTVSS | low polyreactivity
7 | QVQLLESGCGLVQAGGSLRLSCMASGSILGDRMSWYRQAPGKEHELVATIYDGGITYYADSMKGRFTISRDNAKNTVYLQMNSLRPEDTAVYYCGASFEGYRYHVYCGQGTQVTVSS | low polyreactivity
8 | QVQLLESGGCLVQAGGSLRLSCAASGSTFWHNAMGWYRQAPGKERELVAAISSGSSTYYADSVKGRFTISRDNAKNTVYLQMNSLKPEDTAVYYCAKELYLGYRYWGYYWGQGTQVTVSS | high polyreactivity
9 | QVQLLESGGGIVQAGGSHRLRCAASGSIFGTNAMCWYRQATGKERELVAAISLSTGSTYYADSVKGRFTISRDNAKNTVYLQMNSLKPEDTAVYYCAAYYVTPIYYYWGQGTQVTVSS | low polyreactivity
10 | QVQLLESGGGLDQAGGSLRLTSAASGSIFYGYAMGWYRQAPRKERELVAAISYSGDRTYYADSVKGRFTISRDNAKNTVYLQMNSLKPEDTAVYYCAARKHGGTVRGRRDYWGQGTQVTVSS | high polyreactivity
11 | QVQLLESGGGLVKAGGSLRVSCAASGLTFNYYAMGWYRHAPGKDRELCAAISRRGGYTYYADSVKGRFTISRDNAKNTVYVQKNSQKPEDTAVYDCAADNYEHNYYGYYYWGQGNQVTVSS | high polyreactivity
12 | QVQLLESGGGLVQAGGSLLLSCAASGLTFHRYAMGWYRQAPGKERELFAAINYSGGRTYYADSVKGRFTISRDNAKNTVYLQMNSLKPEDSAVYYCAARYLGCDYSGSWWKYYYWGQGTQVTVSS | high polyreactivity
13 | QVQLLESGGGLVQAGGSLRLSCAASGFIFKGNAMGWYRQAPGKERELVAAITNRGGGTYYADSVKGRFTISRDNAKNTVYLLMNSLKPEDTAVYYCAKAYTLPFHPYDYWGQGTQVTVSS | high polyreactivity
14 | QVQLLESGGGLVQAGGSLRLSCAASGFTFWYYAMGWYRQAPGKEREFVASISWNGGRTYYADSVKGRFTISRDNAMNTVYLQMNSLKPEDTAVYYCATRVIYSFTDFKGDYWGQGTQVTVSS | high polyreactivity
15 | QVQLLESGGGLVQAGGSLRLSCAASGGTFRPYAMGWYRQAPGKERELVAAISFTGSTYYADSVKGRFTISRDNAKNTVYLQMNSLKPEDTAVYYCAKDFWYPPRFDYWGQGTQVTVSS | low polyreactivity
16 | QVQLLESGGGLVQAGGSLRLSCAASGIIFCEYAMGWYTQAPGKERELVATITSGDSTNYADSVKGRFTISRDNAKNTVYLQMNSLKPEDTAVYYCIADYAFLPSYDYWGQGTQVTVSS | low polyreactivity

Row | Sequence | polyreactivity (PSR sort gate)
17 | QVQLLESGGGLVQAGGSLRLSCAASGIIVSYAMGWYRQAPGKERELVAAIRYSGDSTYYADSVKGRFTISRDNAKNTVYLQMNSLKPEDTAVYYCAATKGWSRYEYWGQGTQVTVSS | low polyreactivity
18 | QVQLLESGGGLVQAGGSLRLSCAASGLIFAYAMGWYRQAPGKERELVAVISWSGGSTYYADSVKGRFTISRDNAKNTVYLQKNSLKPEDTAVYYCAADYFGNWQLAGGYLGQGTQVTVSS | low polyreactivity
19 | QVQLLESGGGLVQAGGSLRLSCAASGLIFWGYAMGWYRQAPGKERELVAAINATGGRTYYADSVKGRFTISRDNAKNTVYLQMNSLKPEDTAVYYCAAYSGFYDSYDYWGQGTQVTVSS | low polyreactivity
20 | QVQLLESGGGLVQAGGSLRLSCAASGLTFSSYTMGWYRQAPGKERELVAANTRRGTSTYYADSVKGRFTISRDNAKNTVYLQMNSLKPEDTAVYYCNALVYDEYGYYHYYLRNGGYYWGQGTQVTVSS | high polyreactivity
21 | QVQLLESGGGLVQAGGSLRLSCAASGRIFGRYAMGWYRQAPGKERELVAAISSGGRTNYADSVKGRFTISRDNAKNTVYLQMNSLKPEDTAVYYCAARAYTYQAQSNYWGQGTQVTVSS | high polyreactivity
22 | QVQLLESGGGLVQAGGSLRLSCAASGRIFKFKAMGWYRQAPGKERQLVAATWSGGRTSYADSVKGRITISRDNAKYTVYLQMNSLKPEDTAVYYCAARWFDGDWDYWYDYWGQGTQVTVSS | low polyreactivity
23 | QVQLLESGGGLVQAGGSLRLSCAASGRTFAWNAMGWYRQAPGNERELVARLRSSGSTYYADSVKGRFTISRDNAKNTVYLQMNSLKPEDTAVYYGAKKWGWFPVYYWGQGTQVTVSS | high polyreactivity
24 | QVQLLESGGGLVQAGGSLRLSCAASGRTFTRNAMGWNRQAPGKERELVATIRYSTGTTYYADSVKGRFTISRDNAKNTVYLQMNSLKPEDTAVYYCAARVYRYRGYDSWGKGTQVTVSS | high polyreactivity
25 | QVQLLESGGGLVQAGGSLRLSCAASGRTFWYYVMGWYRQAPGKERELFAAITSSGGSTYYADSVKGRFTISRDNAKNSVYLQMNSLKAEDTSVYYCGAAAYTRGYYWGQGTEVTVSS | low polyreactivity
26 | QVQLLESGGGLVQAGGSLRLSCAASGRTFYRTAKGWYRQAPGKERELVASITRSGNTNYADSVKGRFTISRDNAKNTVYLQMNSLKPEDTAVYYCAARPWLRNKYDYWGQGTQVTVSS | high polyreactivity
27 | QVQLLESGGGLVQAGGSLRLSCAASGSIFANNAMGWYRQSPGKEREMVAAIDWSAASTYYADSVKGRFTISRDNAKNTVYLQMNSLKPEDTAVYYWNRRGSGGESYRTTTGALGYWGQGTQVTVSS | low polyreactivity
28 | QVQLLESGGGLVQAGGSLRLSCAASGSIFATYAMGWYRQAPGKERELVAAISSSGARTYYADSVKGRFTISRDNAKNTVYLQMNSLKPEDTAVYYCNADLYSYFWRVRYGLDYWGQGTQVTVSS | high polyreactivity
29 | QVQLLESGGGLVQAGGSLRLSCAASGSIFDPYAMGWYRQAPGKERELVAVINDGGRTTYADSVKGRFTISRDNAKNTVYLQMNRLKPEDTAVYYCAATSYFSRWDLYGYWGQGTQVTVSS | low polyreactivity
30 | QVQLLESGGGLVQAGGSLRLSCAASGSIFGLYAMGWYRQAPGKERELVAAISPRGGSTYYADSVKGRFTISRDNAKNTVYLQMNSLKPEDTAVYYCNRDYIRYALGHDYWGQGTQVTVSS | high polyreactivity
31 | QVQLLESGGGLVQAGGSLRLSCAASGSIFTEYAMGWYRQAPGKERELVAAITYSGGSTYYADSVKGRFTISRDNAKNTVYLQMHSLKPDDTAVYYCNADYRIYVAYYYWGQGTQVTVSS | low polyreactivity
32 | QVQLLESGGGLVQAGGSLRLSCAASGSTFGYYAMGWYRQAPGKERELVAAITRSGSSTYYADSVKGRFTISRDNAKNTVYLQMNSLKPEDTAVYYCAAEARYWIYEYDYWGQGTQVTGSS | high polyreactivity
